How the values were obtained:
Assay in all cases: fluorescence anisotropy
[1] = target: T1, RecE564 Q781A (Escherichia coli K12, UniProt P15032 564-866, Q781A)
T1 sequence: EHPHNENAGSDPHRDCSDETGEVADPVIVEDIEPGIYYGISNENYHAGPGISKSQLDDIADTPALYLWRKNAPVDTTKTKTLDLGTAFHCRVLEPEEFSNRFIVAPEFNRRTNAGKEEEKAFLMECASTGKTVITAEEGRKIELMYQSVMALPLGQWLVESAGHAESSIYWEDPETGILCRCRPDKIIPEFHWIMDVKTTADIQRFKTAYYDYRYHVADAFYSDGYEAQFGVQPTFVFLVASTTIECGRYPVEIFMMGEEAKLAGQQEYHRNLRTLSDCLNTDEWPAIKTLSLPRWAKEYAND

[2] = target: T2, RecE564 P658L (Escherichia coli K12, UniProt P15032 564-866, P658L)
T2 sequence: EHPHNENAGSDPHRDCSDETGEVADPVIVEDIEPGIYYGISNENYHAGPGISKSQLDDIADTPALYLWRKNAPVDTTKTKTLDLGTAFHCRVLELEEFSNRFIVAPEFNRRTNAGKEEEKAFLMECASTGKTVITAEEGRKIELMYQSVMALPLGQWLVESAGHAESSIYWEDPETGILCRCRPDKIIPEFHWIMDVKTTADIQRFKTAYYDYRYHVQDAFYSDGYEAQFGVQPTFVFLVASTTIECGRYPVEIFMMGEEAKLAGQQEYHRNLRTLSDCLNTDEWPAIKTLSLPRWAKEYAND

[3] = target: T3, RecE564 R746A (Escherichia coli K12, UniProt P15032 564-866, R746A)
T3 sequence: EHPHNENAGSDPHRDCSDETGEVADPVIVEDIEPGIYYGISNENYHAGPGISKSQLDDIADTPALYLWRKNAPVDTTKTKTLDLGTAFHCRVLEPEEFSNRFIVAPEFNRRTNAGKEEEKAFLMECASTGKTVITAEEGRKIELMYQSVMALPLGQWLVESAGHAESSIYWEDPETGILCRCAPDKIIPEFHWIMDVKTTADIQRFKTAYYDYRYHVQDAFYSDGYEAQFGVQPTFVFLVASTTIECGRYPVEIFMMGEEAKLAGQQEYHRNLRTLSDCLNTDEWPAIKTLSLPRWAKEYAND

[4] = target: T4, RecE564 H652A (Escherichia coli K12, UniProt P15032 564-866, H652A)
T4 sequence: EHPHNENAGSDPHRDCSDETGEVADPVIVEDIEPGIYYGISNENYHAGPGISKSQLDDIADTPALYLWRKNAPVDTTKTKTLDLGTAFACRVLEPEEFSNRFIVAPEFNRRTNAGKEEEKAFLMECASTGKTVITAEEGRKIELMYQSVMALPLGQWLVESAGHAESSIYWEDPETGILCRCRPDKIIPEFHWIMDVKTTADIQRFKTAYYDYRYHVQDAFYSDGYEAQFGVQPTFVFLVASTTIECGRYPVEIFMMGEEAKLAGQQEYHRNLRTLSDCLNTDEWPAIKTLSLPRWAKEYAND

[5] = target: T5, RecE564 Y785A (Escherichia coli K12, UniProt P15032 564-866, Y785A)
T5 sequence: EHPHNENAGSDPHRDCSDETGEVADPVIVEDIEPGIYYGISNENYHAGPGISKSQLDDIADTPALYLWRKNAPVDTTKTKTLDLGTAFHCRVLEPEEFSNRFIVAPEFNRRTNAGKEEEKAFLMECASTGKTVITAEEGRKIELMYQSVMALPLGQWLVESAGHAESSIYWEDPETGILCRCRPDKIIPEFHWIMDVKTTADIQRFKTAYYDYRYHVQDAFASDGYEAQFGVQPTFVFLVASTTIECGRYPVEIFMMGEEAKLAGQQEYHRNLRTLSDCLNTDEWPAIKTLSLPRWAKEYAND

[6] = target: T6, RecE606 P658L (Escherichia coli K12, UniProt P15032 606-866, P658L)
T6 sequence: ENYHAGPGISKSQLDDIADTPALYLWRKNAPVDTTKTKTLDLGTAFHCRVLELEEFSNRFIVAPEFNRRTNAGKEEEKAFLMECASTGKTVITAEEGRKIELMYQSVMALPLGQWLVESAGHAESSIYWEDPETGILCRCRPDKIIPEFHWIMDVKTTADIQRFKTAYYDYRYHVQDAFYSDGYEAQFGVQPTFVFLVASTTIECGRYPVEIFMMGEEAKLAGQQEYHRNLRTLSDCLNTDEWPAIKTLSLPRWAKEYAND

[7] = target: T7, RecE564 R858A (Escherichia coli K12, UniProt P15032 564-866, R858A)
T7 sequence: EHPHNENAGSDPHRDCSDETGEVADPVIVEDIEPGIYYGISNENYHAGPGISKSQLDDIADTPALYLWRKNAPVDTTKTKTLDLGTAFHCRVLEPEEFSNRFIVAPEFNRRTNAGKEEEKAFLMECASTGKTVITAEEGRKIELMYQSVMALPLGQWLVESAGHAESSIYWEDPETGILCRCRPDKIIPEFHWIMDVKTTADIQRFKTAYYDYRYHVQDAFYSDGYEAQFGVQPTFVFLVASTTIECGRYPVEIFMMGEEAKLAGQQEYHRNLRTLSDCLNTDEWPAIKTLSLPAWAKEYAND

B1: F25 (dsDNA)
DNA 1: TAGAGCTTAATTGCTGAATCTGGTG
DNA 2: CACCAGATTCAGCAATTAAGCTCTA
Question: How did the Kd [1] turn out when B1 was run?
Answer: The Kd was 70 ± 20 nM.

Question: What about the Kd [2] of the same binder?
Answer: Its Kd is 80 ± 10 nM.

Question: What about the Kd [3] of the same binder?
Answer: The Kd was 90 ± 10 nM.

Question: And the Kd [4]?
Answer: Its Kd is 130 ± 10 nM.

Question: What about the Kd [5] of the same binder?
Answer: The Kd was 98 ± 9 nM.

Question: What about the Kd [6] of the same binder?
Answer: The Kd was 110 ± 20 nM.

Question: And the Kd [7]?
Answer: Its Kd is 77 ± 5 nM.

Reference: PMC2688778 (Structure (London, England : 1993), 2009)
